Earlier results as cited in paper PMC12093155.

Biological target: Prx1 (Homo sapiens) (UniProt Q06830)
Sequence (Q06830 2-199): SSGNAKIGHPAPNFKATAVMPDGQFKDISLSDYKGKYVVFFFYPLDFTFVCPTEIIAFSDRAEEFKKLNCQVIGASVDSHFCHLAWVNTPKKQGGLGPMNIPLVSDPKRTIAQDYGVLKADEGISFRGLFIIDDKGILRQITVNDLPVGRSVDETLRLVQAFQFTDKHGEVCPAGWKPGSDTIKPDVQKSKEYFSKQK

Sequence of Srx (Q9BYN0 whole entry): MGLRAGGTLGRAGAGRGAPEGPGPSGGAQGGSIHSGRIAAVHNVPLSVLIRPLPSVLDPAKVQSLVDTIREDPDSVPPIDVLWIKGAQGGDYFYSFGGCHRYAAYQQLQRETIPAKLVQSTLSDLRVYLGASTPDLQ

- Kd: 7 µM
Substance: Srx (from UniProt Q9BYN0)
